This note sets out measurements from EP1175513B1, “MinK-RELATED GENES, FORMATION OF POTASSIUM [sequence] AND ASSOCIATION WITH CARDIAC [sequence]” (The University of Utah Research Foundation, priority 1999, dated 2000).

In series [1] the target is HERG (human, UniProt Q12809 1-1159). Kind of series: cell-based or functional assay.
The conditions of series [2]: human, in vivo, po. How it is done: To test the hypothesis that MiRP1 mutants cause cardiac arrhythmia, we screened a panel of 20 patients with drug-induced arrhythmia and 230 patients with inherited or sporadic arrhythmias and no mutations in their KVLQT1, HERG, SCN5A or KCNE1 genes.
Q9E-hMiRP1. […] The patient is a person with a history of high blood pressure, non-insulin dependent diabetes and stroke. […] The patient was admitted to the hospital with pneumonia and treated with 7 doses of intravenous erythromycin, 500 mg every 6 hours and then switched to oral clarithromycin, 500 mg every 12 hours.

Series [3] deals with T1, channels formed with Q9E-hMiRP1 (Homo sapiens, UniProt Q12809). The series can be described thus: in vitro. As to conditions: cho cells.
T1 sequence (Q12809 whole entry): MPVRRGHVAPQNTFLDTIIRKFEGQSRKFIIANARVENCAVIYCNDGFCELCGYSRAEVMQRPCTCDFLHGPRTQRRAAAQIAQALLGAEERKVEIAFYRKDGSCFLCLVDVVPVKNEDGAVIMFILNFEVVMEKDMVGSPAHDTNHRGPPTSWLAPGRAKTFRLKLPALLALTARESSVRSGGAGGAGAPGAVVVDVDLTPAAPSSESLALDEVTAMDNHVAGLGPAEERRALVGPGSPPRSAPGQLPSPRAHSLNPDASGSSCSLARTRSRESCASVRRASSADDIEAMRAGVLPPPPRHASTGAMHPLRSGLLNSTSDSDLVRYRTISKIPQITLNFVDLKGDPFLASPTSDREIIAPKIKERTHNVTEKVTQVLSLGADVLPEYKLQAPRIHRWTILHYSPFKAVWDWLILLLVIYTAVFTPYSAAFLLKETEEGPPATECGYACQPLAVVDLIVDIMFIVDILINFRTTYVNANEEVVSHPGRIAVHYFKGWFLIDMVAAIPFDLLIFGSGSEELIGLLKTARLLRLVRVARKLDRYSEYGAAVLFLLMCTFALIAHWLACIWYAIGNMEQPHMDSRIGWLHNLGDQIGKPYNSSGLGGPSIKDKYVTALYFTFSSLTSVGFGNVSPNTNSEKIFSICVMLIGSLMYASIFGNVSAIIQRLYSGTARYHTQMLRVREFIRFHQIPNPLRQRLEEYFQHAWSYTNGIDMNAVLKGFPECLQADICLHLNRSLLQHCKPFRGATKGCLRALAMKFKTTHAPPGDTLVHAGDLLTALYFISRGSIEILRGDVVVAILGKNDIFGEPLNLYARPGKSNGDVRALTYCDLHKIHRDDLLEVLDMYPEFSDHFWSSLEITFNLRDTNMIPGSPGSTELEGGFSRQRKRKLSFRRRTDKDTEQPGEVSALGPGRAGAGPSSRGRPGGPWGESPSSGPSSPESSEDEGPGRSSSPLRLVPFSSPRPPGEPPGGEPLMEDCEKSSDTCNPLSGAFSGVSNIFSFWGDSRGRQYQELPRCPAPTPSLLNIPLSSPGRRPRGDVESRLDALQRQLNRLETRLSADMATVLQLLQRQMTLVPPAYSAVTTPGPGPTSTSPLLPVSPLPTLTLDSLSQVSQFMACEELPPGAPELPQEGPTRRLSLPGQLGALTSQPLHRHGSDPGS
T1 sequence (Q9Y6J6 with tags, fused parts or gaps Q9E partner): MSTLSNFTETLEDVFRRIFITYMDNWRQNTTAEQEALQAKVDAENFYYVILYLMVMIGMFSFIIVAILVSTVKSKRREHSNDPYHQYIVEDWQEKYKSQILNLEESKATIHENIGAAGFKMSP
Series [4] deals with channels formed with wild type hMiRP1 (Homo sapiens, UniProt Q12809). The series can be described thus: Clarithromycin blockade of channels expressed in CHO cells. Conditions: effect of clarithromycin (Fig. 9C).
Chain of channels formed with wild type hMiRP1 (Q12809 whole entry): as the sequence (Q12809 whole entry) above
Chain of channels formed with wild type hMiRP1 (Q9Y6J6 whole entry partner): as the sequence (Q9Y6J6 with tags, fused parts or gaps Q9E partner) above, with E9Q counted along it
Series [5] has as its target T1, channels formed with Q9E-hMiRP1. Described as above. Conditions: effect of clarithromycin (Fig. 9C).

With M54T-hMiRP1 (from UniProt Q9Y6J6 1-123), in series [1], the activation V1/2 mV is -21 mV; the deactivation ratio If/(Is + If) was 0.81; the deactivation τf s stood at 37 ms; the deactivation τs, s is 266. The molecule further registered a faster deactivation against wild type hMiRP1 channels in series [1] of 3 fold.

Q9E-hMiRP1 (from UniProt Q9Y6J6 1-123): in series [1], the activation V1/2 in 1 mM Ca^2+, 1 mM KCl solution is -12 mV; the activation V1/2 mV was -12 mV; the deactivation ratio If/(Is + If) came out at 0.8; the deactivation τf s is 100 ms. Further, the deactivation τs, s in series [1] stood at 750.

With T8A-hMiRP1 (from UniProt Q9Y6J6 1-123), in series [1], the activation V1/2 mV was -29 mV; the deactivation ratio If/(Is + If) came to 0.83; the deactivation τf s is 100 ms; the deactivation τs, s is 590.

For `CC[C@H]1OC(=O)[C@H](C)[C@@H](O[C@H]2C[C@@](C)(OC)[C@@H](O)[C@H](C)O2)[C@H](C)[C@@H](O[C@@H]2O[C@H](C)C[C@H](N(C)C)[C@H]2O)[C@](C)(OC)C[C@@H](C)C(=O)[C@H](C)[C@@H](O)[C@]1(C)O` [clarithromycin], the arrhythmia developed entry in series [2] was “TdP and VF”. Also, the selectivity ratio in series [3] was 3. Further, the slope factor result in series [4] and in series [5] was “no change” each time.

“wild type human MiRP1 (from UniProt Q9Y6J6 1-123)”: in series [1], the activation V1/2 in 1 mM Ca^2+, 1 mM KCl solution was -20 mV; the activation V1/2 mV is -21 mV; the deactivation ratio If/(Is + If) is 0.82; the deactivation τf s came out at 80 ms. In addition, in series [1], the deactivation τs, s turned out to be 483; the faster deactivation against HERG alone (τf at -120 mV) amounted to 3 fold; the unitary conductance (oocytes) came out at 8 pS.

B1: rMiRP1 (other)
chain: MTTLANLTQTLEDAFKKVFITYMDSWRRNTTAEQQALQARVDAENFYYVILYLMVMIGMFAFIVVAILVSTVKSKRREHSQDPYHQYIVEDWQQKYRSQILHLEDSKATIHENLGATGFTVSP
Consider B1, for which, in series [1], the “acceleration of single-channel deactivation” value is 2.3 fold; the “increase in deactivation rate against HERG alone” value amounted to 7 fold; the “increase in deactivation rate, plasma-like solution” value was ~2 fold.
